Assay: soluble on expression in E. coli; label from the status in PepcDB or PDB records

MGSDKIHHHHHHMSRILITCAITGSIHTPSMSPYLPVTADEITQQAVDAADAGAAILHLHARDPETGRPSAEIGHFMGFLPRIKQSCEAVLNLSTGGSAVMTLDQRLAAPKQAAPEMCSLNMGTMNFALYPAADRISDWKHDWEEPFLRGSDDLVFKNTPRDMALILGEMGTKRGARFEFEVYDVGHLYMLRHFVDRGLVQGPLFIQFVFGVLGGIGPDPENLMHMKTVADKLFGQDYLFSVLAAGRHQIPLVTMAAAMGGHVRVGLEDSLMISRGVLARSNAEQVRKIRRIVEDLGREVASPGEARAMLGLKGADRTAF
soluble on expression in E. coli: not soluble

MKALSKLKAEEGIWMTDVPVPELGHNDLLIKIRKTAICGTDVHIYNWDEWSQKTIPVPMVVGHEYVGEVVGIGQEVKGFKIGDRVSGEGHITCGHCRNCRGGRTHLCRNTIGVGVNRPGCFAEYLVIPAFNAFKIPDNISDDLAAIFDPFGNAVHTALSFDLVGEDVLVSGAGPIGIMAAAVAKHVGARNVVITDVNEYRLELARKMGITRAVNVAKENLNDVMAELGMTEGFDVGLEMSGAPPAFRTMLDTMNHGGRIAMLGIPPSDMSIDWTKVIFKGLFIKGIYGREMFETWYKMAALIQSGLDLSPIITHRFSIDDFQKGFDAMRSGQSGKVILSWD
soluble on expression in E. coli: soluble

MTVFVDHKIEYMSLEDDAELLKTMAHPMRLKIVNELYKHKALNVTQIIQILKLPQSTVSQHLCKMRGKVLKRNRQGLEIYYSINNPKVEGIIKLLNPIQ
soluble on expression in E. coli: soluble

MTTAHRPTFHPARGGTARGEGDLSKLSNQYSSKDMPSHTKMKYRQTGQETEADLRKKDLRRELEDKERNAIREKRARDSASSSSSHSKRQRMDQIAAESAASVDADEAVDELNSSDDDDSDEDDTAALMAELEKIKKERAEEKAARDEEIKEKEEKQRMENILAGNPLLNDTPAGSSTSGGDFTVKRRWDDDVVFKNCAKGVEERKKEVTFINDAIRSEFHKKFMDKYIK
soluble on expression in E. coli: soluble

MIDISHGHTSCSSHRSSSLPSVFWKIHLSPPLPSFKFKKSTESTQRQTIPKFSSPASSLAPSTPLWSLSSCLLVSEVSFWPGAGFLYNDLVCLDREDHCLSNSASHSCG
soluble on expression in E. coli: soluble

MGSDKIHHHHHHMNLYQTKLFTTLQKEYKNKYGVDISQFVKLTNSSINFDKFEEEQLTLKQKNVIKSIKKNNEKKIILSGGIASGKTYLACYLFLKSLIEIKKLYSSDTNNFIIGNSQRSVEVNVLGQFEKLCKLLKIPYIPRHTNNSYILIDSLRINLYGGDKASDFERFRGSNSALIFVNEATTLHKQTLEEVLKRLRCGQETIIFDTNPDHPEHYFKTDYIDNIATFKTYKFTTYDNVLLSKGFVETQEKLYKDIPSYKARVLLGEWIASTDSIFTQINITDDYVFTSPIAYLDPAFSVGGDNTALCVMERVDDKYYAFVFQDQRPANDPYIMNMVKTVIENFNVHTLYLEDRDNTKGAGGLTREYILLRSNISQYFRIVPVKPKSNKFSRITTLITPFTYKKLYITKYSSSSVFNDIYSYKGDNKTHDDALDAISAAYLMLSLGYRERSVHFGNQRFL
soluble on expression in E. coli: not soluble

MGSDKIHHHHHHLAVMPFSPDQIIRPEILALSAYHVPPACGMIKLDAMENPYPLPPELRDEIAKLAGETPVNRYPDPDAAALKAALREALSIPDGMDIMLGNGSDEIIQIIALACGKPGAVLMSVEPAFVMFRMIATFASMNYVGVPLHPDFSLDAEAMLAAIARYQPAVIFIAYPNNPTGNLFDAVEISRIIDAAPGVVVVDEAYHAFADASFMDKLAHHPNLLLMRTLSKLGMAGLRLGLLAGKPEWLRQLEKLRLPYNVGIVTQRIAEKLLQHRDVLLQQAAAIKLERSSMSRRLAELEGIEVFPTDANFILFRLNQDHKATQVFQELKQRGILVKNLDGAHPLLKNCLRVTVGMPDENAQFLEVLQTLLVKVEAKA
soluble on expression in E. coli: not soluble

MENGCGKMESFSPQALEMIRSLGTTHIWYIGMLEQATQTNYSDAGILPCHPEIVKGKAGSPYAVRDYYDVSPELATNIPNRMAEFHDLIERTHRAGMGVIMDFVPNHVAREYRSDVKPSGTKDLGEEDDPLVAFSPNNNFYYLPGKCLELDFGERSRTMMPYHEEPARATGNDRFSSHIDKEDWYETVKLNYGIDYLNGGSKHFDPLPDTWIRMRDILLFWASKGIDGFRCDMAEMVPVKFWEWAIPQIRERHSVLFIAEIYRPELYESYLQAGFDYLYDKVGMYDCLRTVICGYGSASDISRVVRQTERFADNMLYFLENHDEQRIASDFFAEDARKALPAVTIAATIGRNPFMLYFAQELGERGMDAEGFSGKDGRTTIFDYWSLDKMQRRINDGRYDTTMLSEEERLLLQSYTRLLHDVCALPSVIQGSFYDLGYANQNNPYFRPNREFAFLRHTTDEILLVAANFAPHEAEIRVIIPEHAFQTMQIKDNAAFLLTDMLSGENSIGCLTQYAPYPLHLPAYGYALHRFRPL
soluble on expression in E. coli: not soluble

MSVQPETMPDSSNKTNPTVKEVIAYLADKFPLCFSIEGEAKPLKVGLSQDLAEALADDEKVSKTLLRQVLRSYTMSWRYLACCKANAQRIGLQGENVGIVDEAQAEHAAQSLAVAKEAYAARKAEQRKEQRKDFFKKKAREERNAKTMNKAVKKGSPKKDTFAKATAESLAVLTHKFSKGNK
soluble on expression in E. coli: not soluble

MAHHHHHHMSDDDDKIYIYSDLFSKNFSDDEKDDSYEREKQVYSGSETQNAENEYSKLRAQNSTILNNYFDNDNIKNVENLKSNDPDQIDLILFPVNKNYYMNLFDGQLIENIHSIKLRKAGFYAIYVENNNNSKWDGIYFGLSRMQVELDYKLITKKNKDGGEYEKRNTSSYDNTESVQNTVGSEKEETENKNEETSNYNSNLNNEINKICKYNLDQTDILLDDSNSERRRNSKFKIKNTNYYDNLMLQNKYTNSILYDDDDDKNNTETYTCTFKTEDQIRVPSQKKKYIYLYNKYDNATLDLNVHTYMSLGMSILCKYSLLYCGKYNHIPRDPYTPFKKPVSILSLDGGGILTISTLLVLNRLEAELRKEIGSDDIKLIDCFDMVCGTSAGGLISLALLREIDLQDVSNMWPSTIKKVFEGNRNIISGIFFEGYDVNNVKDVFLERMGNKFMSSYKKFYCFVTATDVKHKPYKLFLIRNYTHKYNSINAESYDGINKVPLWLAAWATASAPTYLKGPSAEDIKKLGINIKPEIHLVDGALKASNPALIALEECARLNNKNLSTFIKEDLDTLVSIGTGQVPTKLTQSGASSKSASTFEILINSTHLLTRANDTHREVLQRLADRENTYFRFNVPHIGDIEIDSQDVRDFDLISKATQDYLFDEKFYEIKRLAHKLANNYIRSKYL
soluble on expression in E. coli: not soluble

MAHHHHHHMQDVDEMKYLLPNLKQPITSIQVHSWTGTKESYILESKDYVLGEGMPEKCDAIATDCFLSGFTDIGKCFQCKLLMQEKNINDSCFKYVSSNQKELIKKQLKITAQDDEESSEYHLSESIKNLLKNIYKKNNDDNKKKELLHFENVNSALKSELLNYCNLLKEVNMNGVLKDHQLGNVQDVFNNLTKLLEEHKEENDNVLYHKMKNEALCLKNVNDWMKNKTGLLLPQLSYDLTYKNNNFTEFTQNKSYTSQNIVDKLYCNHEYCNRLKDHNNCISKINVEDQKNCALSWAFASKYHLETIKCMKGYEPLNASVLYVTNCLKNKNKDVCTEGSNPLVFLETIEEKGFLPTESNYPYDQSKVGDICPQLQNDWDNVFENTKVLDYNNGPFSVGTKGYIAYESEAFQKDMHSFVKLVKDEIMNKGSVIAYVKAENVLGYELNGKKVQNLCGDKTPDHVVNIVGYGNYINNKGEKKSYWIVRNSWGKYWGDDGYFKVDMYGPSTCEDNFIHTVVVFNVQVPINEKFDKKEHDIYNYYLKTSPEFYHNLYYKTFNSNKEEKSMNKNSYVYGQDTTPVENEAPRSGVQKPTELSSTESQTVSPPNESQTESLLSGGSQVTNPTLTQSTSSSSGQQETGPLSTQGLSPATGDPKGKEQEASPAEGLSGVLNPTKEVTSEEKIQIIHLLKHIKNSKIRRGLVKYNHEFEVGDNSCSRSTSKNAEMHDECVNICEKYWPECRGTAVPGYCLSTHDDKNECDFCYV
soluble on expression in E. coli: not soluble

MAHHHHHHMVFFFPSFFFHNHDRELSCGKVSKAFIYIKKIHKMRRVSSLKEYNSLKEEAGNGLGLVVHFSASWCEPCKNVGSMLEGYLSQYNQKVLFAEVDADLVTNVCEAENVECVPFIVFFRTSSRERAQERVADVVGGKLDHLEMNLVSLYGNGHDTRESFPDLNEYLKYLTSRKGVVAFITGTPSRPRCGFTGRLVEIFYELGIKFIYYDVWASDEVCEGLKKYSEWPTYPQVYVDGELIGGYDICSQLKESGELKAILKH
soluble on expression in E. coli: soluble

MLPEKSEIVVIGGGIVGVTIAHELAKRGEEVTVIEKRFIGSGSTFRCGTGIRQQFNDEANVRVMKRSVELWKKYSEEYGFSFKQTGYLFLLYDDEEVKTFKRNIEIQNKFGVPTKLITPEEAKEIVPLLDISEVIAASWNPTDGKADPFEATTAFAVKAKEYGAKLLEYTEVKGFLIENNEIKGVKTNKGIIKTGIVVNATNAWANLINAMAGIKTKIPIEPYKHQAVITQPIKRGTINPMVISFKYGHAYLTQTFHGGIIGGIGYEIGPTYDLTPTYEFLREVSYYFTKIIPALKNLLILRTWAGYYAKTPDSNPAIGRIEELNDYYIAAGFSGHGFMMAPAVGEMVAELITKGKTKLPVEWYDPYRFERGELRTAALQMG
soluble on expression in E. coli: soluble

MKVGVFTVLYQQLPLEDMLDKVAAMGIEAVELGTGNYPGNAHCDPDALLDQPEKIKALKKAVADRGLVISALSCHGNPLHPDKTFAKQSHDTWRKTVRLAEQLEVPVINAFSGCPGDHPGAKYPNWVTCSWPPDYLEILKWQWEEVVIPYWREEAAFAKEHGITQIAFEMHPGFVVYNPETLLKLREHVGEAIGANFDPSHLLWQGIDPVEAIKLLGREKAIFHVHAKDTYLDEANIRKNGVLDTKHYSQILDRSWVFRTVGYGQSEKMWRDIVSALRAVGYDYVLSIEHEDMLASIDEGLSKAVALLKKVLFKEELPEMWWA
soluble on expression in E. coli: not soluble

MALNVAPVRDTKWLTLEVCRQFQRGTCSRSDEECKFAHPPKSCQVENGRVIACFDSLKGRCSRENCKYLHPPTHLKTQLEINGRNNLIQQKTAAAMLAQQMQFMFPGTPLHPVPTFPVGPAIGTNTAISFAPYLAPVTPGVGLVPTEILPTTPVIVPGSPPVTVPGSTATQKLLRTDKLEVCREFQRGNCARGETDCRFAHPADSTMIDTSDNTVTVCMDYIKGRCMREKCKYFHPPAHLQAKIKAAQHQANQAAVAAQAAAAAATVMAFPPGALHPLPKRQALEKSNGTSAVFNPSVLHYQQALTSAQLQQHAAFIPTVPMMHSATSATVSAATTPATSVPFAATATANQIILK
soluble on expression in E. coli: soluble

MSLESILDVLSVMYINAQLPREQRHRWRLLFSSELHGHSFSQLCGHITHRGPCVAVLEDHDKHVFGGFASCSWEVKPQFQGDNRCFLFSICPSMAVYTHTGYNDHYMYLNHGQQTIPNGLGMGGQHNYFGLWVDVDFGKGHSRAKPTCTTYNSPQLSAQENFQFDKMEVWAVGDPSEEQLAKGNKSILDADPEAQALLEISGHSRHSEGLREVPDDEGHHHHHH
soluble on expression in E. coli: not soluble

LDGVLVPESGILVSVGQDVDSVNDYASALGTIPAGVTNYVGIVNLDGLNSDADAGAGRNNIAELANAYPTSALVVGVSMNGEVDAVASGRYNANIDTLLNTLAGYDRPVYLRWAYEVDGPWNGHSPSGIVTSFQYVHDRIIALGHQAKISLVWQVASYCPTPGGQLDQWWPGSEYVDWVGLSYFAPQDCNWDRVNEAAQFARSKGKPLFLNESTPQRYQVADLTYSADPAKGTNRQSKTSQQLWDEWFAPYFQFMSDNSDIVKGFTYINADWDSQWRWAAPYNEGYWGDSRVQANALIKSNWQQEIAKGQYINHSETLFETLGYGSTHHHHHH
soluble on expression in E. coli: soluble

MGHHHHHHSHMVNKNAGETLLQRAARLGYEEVVLYCLENKICDVNHRDNAGYCALHEACARGWLNIVRHLLEYGADVNCSAQDGTRPLHDAVENDHLEIVRLLLSYGADPTLATYSGRTIMKMTHSELMEKFLTDYLN
soluble on expression in E. coli: not soluble

From the DeepSol protein solubility set
